# The supplement of paper PMC11246515
# ± gives the standard deviation of the averaged measurements.
# Assay: total protein half-life in vivo (active degradation + dilution); higher = more stable protein
# [1] = E. coli NCM3722 delta-clpP delta-lon delta-hslV, growth: N-lim chemostat, doubling time 6 h
# [2] = wild type E. coli NCM3722, growth: P-lim chemostat, doubling time 6 h
# [3] = E. coli NCM3722 delta-clpP, growth: N-lim chemostat, doubling time 6 h
# [4] = E. coli NCM3722 delta-hslV, growth: N-lim chemostat, doubling time 6 h
# [5] = E. coli NCM3722 delta-lon, growth: N-lim chemostat, doubling time 6 h
# [6] = E. coli NCM3722 delta-smpB, growth: N-lim chemostat, doubling time 6 h
# [7] = wild type E. coli NCM3722, growth: C-lim chemostat, doubling time 6 h
# [8] = wild type E. coli NCM3722, growth: C-lim chemostat, doubling time 12 h
# [9] = wild type E. coli NCM3722, growth: N-lim chemostat, doubling time 6 h
# [10] = wild type E. coli NCM3722, growth: N-lim chemostat, doubling time 12 h
# [11] = wild type E. coli NCM3722, growth: P-lim chemostat, doubling time 12 h
# [12] = wild type E. coli NCM3722, growth: C-lim chemostat, doubling time 3 h
Sequence,total protein half-life in vivo [1] [h],total protein half-life in vivo [2] [h],total protein half-life in vivo [3] [h],total protein half-life in vivo [4] [h],total protein half-life in vivo [5] [h],total protein half-life in vivo [6] [h],total protein half-life in vivo [7] [h],total protein half-life in vivo [8] [h],total protein half-life in vivo [9] [h],total protein half-life in vivo [10] [h],total protein half-life in vivo [11] [h],total protein half-life in vivo [12] [h]
MAQLKFNSILVVCTGNICRSPIGERLLRKRLPGVKVKSAGVHGLVKHPADATAADVAANHGVSLEGHAGRKLTAEMARNYDLILAMESEHIAQVTAIAPEVRGKTMLFGQWLEQKEIPDPYRKSQDAFEHVYGMLERASQEWAKRLSR [P0ACZ2],4.76 ± 0.95,2.72,,,,,,,,,,
MAQPAAIIRIKNLRLRTFIGIKEEEINNRQDIVINVTIHYPADKARTSEDINDALNYRTVTKNIIQHVENNRFSLLEKLTQDVLDIAREHHWVTYAEVEIDKLHALRYADSVSMTLSWQR [P0AC19],4.1 ± 0.57,5.16 ± 0.45,2.73 ± 0.7,2.79 ± 0.23,3.5 ± 0.081,2.93 ± 0.14,4.77 ± 0.2,10 ± 4,2.58 ± 0.23,3.989 ± 0.015,11.5 ± 0.42,
MAQQTPLYEQHTLCGARMVDFHGWMMPLHYGSQIDEHHAVRTDAGMFDVSHMTIVDLRGSRTREFLRYLLANDVAKLTKSGKALYSGMLNASGGVIDDLIVYYFTEDFFRLVVNSATREKDLSWITQHAEPFGIEITVRDDLSMIAVQGPNAQAKAATLFNDAQRQAVEGMKPFFGVQAGDLFIATTGYTGEAGYEIALPNEKAADFWRALVEAGVKPCGLGARDTLRLEAGMNLYGQEMDETISPLAANMGWTIAWEPADRDFIGREALEVQREHGTEKLVGLVMTEKGVLRNELPVRFTDAQGNQHEGIITSGTFSPTLGYSIALARVPEGIGETAIVQIRNREMPVKVTKPVFVRNGKAVA,4.25 ± 0.29,5.88 ± 0.12,3.94 ± 0.048,4.22 ± 0.35,4.16 ± 0.17,3.94 ± 0.068,5.71 ± 0.81,10.5 ± 0.62,3.81 ± 0.2,6.76 ± 0.92,11.4 ± 0.68,3.01 ± 0.22
MAQVAIITASDSGIGKECALLLAQQGFDIGITWHSDEEGAKDTAREVVSHGVRAEIVQLDLGNLPEGALALEKLIQRLGRIDVLVNNAGAMTKAPFLDMAFDEWRKIFTVDVDGAFLCSQIAARQMVKQGQGGRIINITSVHEHTPLPDASAYTAAKHALGGLTKAMALELVRHKILVNAVAPGAIATPMNGMDDSDVKPDAEPSIPLRRFGATHEIASLVVWLCSEGANYTTGQSLIVDGGFMLANPQFNPE,5.0837 ± 0.0019,5.6 ± 0.22,4.64 ± 0.2,5.14 ± 0.54,4.36 ± 0.089,4.64 ± 0.24,5.19 ± 0.38,11 ± 0.19,4.81 ± 0.42,7.86 ± 0.13,10.9 ± 0.34,2.863 ± 0.007
MARLAAFDMDGTLLMPDHHLGEKTLSTLARLRERDITLTFATGRHALEMQHILGALSLDAYLITGNGTRVHSLEGELLHRDDLPADVAELVLYQQWDTRASMHIFNDDGWFTGKEIPALLQAFVYSGFRYQIIDVKKMPLGSVTKICFCGDHDDLTRLQIQLYEALGERAHLCFSATDCLEVLPVGCNKGAALTVLTQHLGLSLRDCMAFGDAMNDREMLVSVGSGFIMGNAMPQLRAELPHLPVIGHCRNQAVSHYLTHWLDYPHLPYSPE,5.84 ± 0.52,,,,1.61,,,,,,,
MARLFTLSESKYYLMALDAGTGSIRAVIFDLEGNQIAVGQAEWRHLAVPDVPGSMEFDLNKNWQLACECMRQALHNAGIAPEYIAAVSACSMREGIVLYNNEGAPIWACANVDARAAREVSELKELHNNTFENEVYRATGQTLALSAIPRLLWLAHHRSDIYRQASTITMISDWLAYMLSGELAVDPSNAGTTGLLDLTTRDWKPALLDMAGLRADILSPVKETGTLLGVVSSQAAELCGLKAGTPVVVGGGDVQLGCLGLGVVRPAQTAVLGGTFWQQVVNLAAPVTDPEMNVRVNPHVIPGMVQAESISFFTGLTMRWFRDAFCAEEKLIAERLGIDTYTLLEEMASRVPPGSWGVMPIFSDRMRFKTWYHAAPSFINLSIDPDKCNKATLFRALEENAAIVSACNLQQIADFSNIHPSSLVFAGGGSKGKLWSQILADVSGLPVNIPVVKEATALGCAIAAGVGAGIFSSMAETGERLVRWERTHTPDPEKHELYQDSRDKWQAVYQDQLGLVDHGLTTSLWKAPGL,4.78 ± 0.065,,1.36,,2.49,1.27,2.83 ± 0.42,2.92 ± 0.031,,,,1.55 ± 0.35
MARSKTAQPKHSLRKIAVVVATAVSGMSVYAQAAVEPKEDTITVTAAPAPQESAWGPAATIAARQSATGTKTDTPIQKVPQSISVVTAEEMALHQPKSVKEALSYTPGVSVGTRGASNTYDHLIIRGFAAEGQSQNNYLNGLKLQGNFYNDAVIDPYMLERAEIMRGPVSVLYGKSSPGGLLNMVSKRPTTEPLKEVQFKAGTDSLFQTGFDFSDSLDDDGVYSYRLTGLARSANAQQKGSEEQRYAIAPAFTWRPDDKTNFTFLSYFQNEPETGYYGWLPKEGTVEPLPNGKRLPTDFNEGAKNNTYSRNEKMVGYSFDHEFNDTFTVRQNLRFAENKTSQNSVYGYGVCSDPANAYSKQCAALAPADKGHYLARKYVVDDEKLQNFSVDTQLQSKFATGDIDHTLLTGVDFMRMRNDINAWFGYDDSVPLLNLYNPVNTDFDFNAKDPANSGPYRILNKQKQTGVYVQDQAQWDKVLVTLGGRYDWADQESLNRVAGTTDKRDDKQFTWRGGVNYLFDNGVTPYFSYSESFEPSSQVGKDGNIFAPSKGKQYEVGVKYVPEDRPIVVTGAVYNLTKTNNLMADPEGSFFSVEGGEIRARGVEIEAKAALSASVNVVGSYTYTDAEYTTDTTYKGNTPAQVPKHMASLWADYTFFDGPLSGLTLGTGGRYTGSSYGDPANSFKVGSYTVVDALVRYDLARVGMAGSNVALHVNNLFDREYVASCFNTYGCFWGAERQVVATATFRF,6.92 ± 0.69,,6.41 ± 0.62,6.62 ± 0.65,6.11 ± 0.76,,6.64 ± 0.37,14.3 ± 1.2,6.14 ± 0.072,11.6 ± 6.1,13 ± 0.45,3.36 ± 0.23
MASGDLVRYVITVMLHEDTLTEINELNNYLTRDGFLLTMTDDEGNIHELGTNTFGLISTQSEEEIRELVSGLTQSATGKDPEITITTWEEWNSNRK,6.09 ± 0.66,4.86 ± 0.83,4.87,4.69,,4.44 ± 0.47,4.88 ± 0.37,10.1,6.08,8.21,11.1 ± 0.71,3.04 ± 0.33
MASKFQNRLVGTIVLVALGVIVLPGLLDGQKKHYQDEFAAIPLVPKAGDRDEPDMMPAATQALPTQPPEGAAEEVRAGDAAAPSLDPATIAANNTEFEPEPAPVAPPKPKPVEPPKPKVEAPPAPKPEPKPVVEEKAAPTGKAYVVQLGALKNADKVNEIVGKLRGAGYRVYTSPSTPVQGKITRILVGPDASKDKLKGSLGELKQLSGLSGVVMGYTPN,4.2 ± 0.25,2.83 ± 0.55,5.15 ± 2.6,3.72 ± 0.18,3.63 ± 0.44,3.52 ± 0.13,3.46 ± 0.32,6.92 ± 0.23,3.32 ± 0.14,5.77 ± 1.7,5.38 ± 0.026,2.45 ± 0.036
MASVSISCPSCSATDGVVRNGKSTAGHQRYLCSHCRKTWQLQFTYTASQPGTHQKIIDMAMNGVGCRATARIMGVGLNTILRHLKNSGRSR [P0CF07],2.96,,,,,,,,,,2.5,
MATHERRVVFFDLDGTLHQQDMFGSFLRYLLRRQPLNALLVLPLLPIIAIALLIKGRAARWPMSLLLWGCTFGHSEARLQTLQADFVRWFRDNVTAFPLVQERLTTYLLSSDADIWLITGSPQPLVEAVYFDTPWLPRVNLIASQIQRGYGGWVLTMRCLGHEKVAQLERKIGTPLRLYSGYSDSNQDNPLLYFCQHRWRVTPRGELQQLE [P0AD42],3.86 ± 0.9,1.82,2.84,2.383 ± 0.018,2.07,2.7 ± 0.1,3.96,9.2 ± 0.12,2.62 ± 0.42,4.48 ± 0.64,3.39,2.27
MATHFARGILTEGHLISVRLPSQCHQEARNIPPHRQSRFLASRGLLAELMFMLYGIGELPEIVTLPKGKPVFSDKNLPSFSISYAGNMVGVALTTEGECGLDMELQRATRGFHSPHAPDNHTFSSNESLWISKQNDPNEARAQLITLRRSVLKLTGDVLNDDPRDLQLLPIAGRLKCAHVNHVEALCDAEDVLVWSVAVTPTIEKLSVWELDGKHGWKSLPDIHSRANNPTSRMMRFAQLSTVKAFSPN [P0ADM8],,3.22 ± 0.14,4.2 ± 0.51,3.24 ± 1.1,2.271 ± 0.01,2.5 ± 0.27,3.36 ± 0.66,6.92 ± 0.22,2.12 ± 0.18,3.63 ± 0.21,5.24 ± 0.93,
MATIHVDGKEYEVNGADNLLEACLSLGLDIPYFCWHPALGSVGACRQCAVKQYQNAEDTRGRLVMSCMTPASDGTFISIDDEEAKQFRESVVEWLMTNHPHDCPVCEEGGNCHLQDMTVMTGHSFRRYRFTKRTHRNQDLGPFISHEMNRCIACYRCVRYYKDYADGTDLGVYGAHDNVYFGRPEDGTLESEFSGNLVEICPTGVFTDKTHSERYNRKWDMQFAPSICQQCSIGCNISPGERYGELRRIENRYNGTVNHYFLCDRGRFGYGYVNLKDRPRQPVQRRGDDFITLNAEQAMQGAADILRQSKKVIGIGSPRASVESNFALRELVGEENFYTGIAHGEQERLQLALKVLREGGIYTPALREIESYDAVLVLGEDVTQTGARVALAVRQAVKGKAREMAAAQKVADWQIAAILNIGQRAKHPLFVTNVDDTRLDDIAAWTYRAPVEDQARLGFAIAHALDNSAPAVDGIEPELQSKIDVIVQALAGAKKPLIISGTNAGSLEVIQAAANVAKALKGRGADVGITMIARSVNSMGLGIMGGGSLEEALTELETGRADAVVVLENDLHRHASAIRVNAALAKAPLVMVVDHQRTAIMENAHLVLSAASFAESDGTVINNEGRAQRFFQVYDPAYYDSKTVMLESWRWLHSLHSTLLSREVDWTQLDHVIDAVVAKIPELAGIKDAAPDATFRIRGQKLAREPHRYSGRTAMRANISVHEPRQPQDIDTMFTFSMEGNNQPTAHRSQVPFAWAPGWNSPQAWNKFQDEVGGKLRFGDPGVRLFETSENGLDYFTSVPARFQPQDGKWRIAPYYHLFGSDELSQRAPVFQSRMPQPYIKLNPADAAKLGVNAGTRVSFSYDGNTVTLPVEIAEGLTAGQVGLPMGMSGIAPVLAGAHLEDLKEAQQ,6.02 ± 0.15,5.72 ± 0.076,5.98 ± 0.38,6.1 ± 0.34,5.92 ± 0.37,5.61 ± 0.29,5.723 ± 0.011,10.3 ± 0.23,5.63 ± 0.15,11 ± 0.17,10.25 ± 0.082,3.14 ± 0.12
MATKLQDGNTPCLAATPSEPRPTVLVFDSGVGGLSVYDEIRHLLPDLHYIYAFDNVAFPYGEKSEAFIVERVVAIVTAVQERYPLALAVVACNTASTVSLPALREKFDFPVVGVVPAIKPAARLTANGIVGLLATRGTVKRSYTHELIARFANECQIEMLGSAEMVELAEAKLHGEDVSLDALKRILRPWLRMKEPPDTVVLGCTHFPLLQEELLQVLPEGTRLVDSGAAIARRTAWLLEHEAPDAKSADANIAFCMAMTPGAEQLLPVLQRYGFETLEKLAVLG,5.25 ± 0.28,6.21 ± 0.3,4.4 ± 0.08,4.32 ± 0.48,4.74 ± 0.2,4.44 ± 0.14,5.49 ± 0.17,,4.54 ± 0.11,7.85 ± 0.034,12.2 ± 0.2,3.22 ± 0.32
MATLFIADLHLCVEEPAITAGFLRFLAGEARKADALYILGDLFEAWIGDDDPNPLHRKMAAAIKAVSDSGVPCYFIHGNRDFLLGKRFARESGMTLLPEEKVLELYGRRVLIMHGDTLCTDDAGYQAFRAKVHKPWLQTLFLALPLFVRKRIAARMRANSKEANSSKSLAIMDVNQNAVVSAMEKHQVQWLIHGHTHRPAVHELIANQQPAFRVVLGAWHTEGSMVKVTADDVELIHFPF,5.85 ± 1.3,6.49 ± 0.51,5.94 ± 0.2,6.87 ± 0.8,,5.781 ± 0.025,,13.1 ± 0.46,6.36 ± 0.95,12.4 ± 0.57,12 ± 0.37,3.14 ± 0.045
